PMC8752837, “Structural basis of BAK activation in mitochondrial apoptosis initiation” (Nature Communications, 2022)

Columns and labels:
[1] = test system: BCL2allKO HCT116 cells reconstituted with Dox-inducible mC-BAK; test: Dox-induced cell death by IncuCyte imaging of SYTOX Green uptake (autoactivation); format: cell-based, human; conditions: for SYTOX Green +ve counts/confluence AUC of kinetic traces: Fig 3d; for AUC (48 hr) of SYTOX Green counts/confluence: mC-BAK BCL2allKO HCT116 + Dox + qVD, average, N = 3
Source text: For mammalian cell culture experiments, we cloned the full length human BAK cDNA into pCR 2.1 TOPO vector, mutated BAK as needed, and PCR amplified the BAK gene for cloning into the BamHI and NotI sites of pRETROX mCherry vector for retroviral transduction. Amplification and mutagenesis primers are included in Supplementary Table 4. To test direct BAK activation and BAK autoactivation in cells, we produced cells stably expressing mCherry-human BAK (mC-BAK) ± human BID (BID) on a genetic background devoid of the entire BCL-2 family repertoire (all 17 BCL-2 genes), BCL2allKO HCT116, as described by the Xu Luo laboratory. We expressed WT and mutant mC-BAK using the doxycycline (Dox)-based inducible Tet-On 3G retroviral system from the pRetroX-TRE3G-Puro^R in BCL2allKO HCT116 cells expressing the Tet3G from pRetroX-Tet3G-Blast^R. We selected cells with puromycin (2.5 µg/mL) and blasticidin (2 µg/mL) starting at 2 days after retroviral transduction. To enrich for populations of cells that express mC-BAK, we treated cells with low Dox dose (25 ng/mL) and fluorescence-activated cell sorted (FACS) the mCherry positive cells. We performed the enrichment twice before cell death analysis. One caveat of our cellular system is tagging BAK with N-terminal mCherry, which may affect folding efficiency, degradation, and BAK interactome.
We seeded cells in 24-well (100,000 cells/well), 96-well (15,000 cells/well), or 384-well (10,000 cells/well) plates coated with 10 µg/mL fibronectin. After ≥24 h of attachment and recovery, we induced cell death with Dox (up to 1000 ng/mL) and monitored SYTOX Green (25 nM) uptake by Incucyte imaging. This dye marks cells with compromised plasma membrane integrity. mC-BAK expressed before 24 h, which coincided with detectable cell death. We monitored Incucyte imaging for up to 48 h, followed by endpoint FACS analysis to measure the extent of cell death based on SYTOX Green positive cells on FACSCalibur systems (BD Biosciences). As expected, cells with low mCherry fluorescence were refractory to cell death.

[2] = test system: BCL2allKO HCT116 cells expressing mC-BAK and BID; test: Dox + TRAIL + CHX induced cell death by IncuCyte imaging of SYTOX Green uptake (direct activation); format: cell-based, human; conditions: TRAIL 200 ng/mL + CHX 0.5 µg/mL added at 6 h
Method: We achieved stable, constitutive expression of human BID in mC-BAK expressing BCL2allKO HCT116 by retroviral transduction based on pMX-human-BID-IRES-GFP. Amplification primers are included in Supplementary Table 4. We performed two rounds of FACS sorting gating on GFP-positive cells to enrich for populations of cells that express BID.
For coexpression of mC-BAK + BID, we treated cells with different doses of Dox for 24 h to induce expression of mC-BAK. At 6 h, we treated cells with TRAIL (200 ng/mL) + cycloheximide (CHX, 0.5 µg/mL) to promote BID activation under conditions of protein synthesis inhibition by CHX, and continued to record Incucyte imaging of SYTOX Green uptake up to 48 h. We blocked caspase activity with qVD (40 µM).

[3] = Liposome permeabilization by WT and mutant BAK proteins (autoactivation, or direct activation by BID BH3); format: biochemical; conditions: absence of BID BH3
Method: Human BAK-∆TM-His6 (BAK)[26] spontaneously permeabilizes liposomes above a certain dose (>100 nM, Fig. 1a). In these dye-release assays[43]–[46], BAK is recruited via His-tag to liposomes containing 2.5 µM of the lipid 1,2-dioleoyl-sn-glycero-3-[(N-(5-amino-1-carboxypentyl)iminodiacetic acid)succinyl] (nickel salt), DGS-NTA(Ni).
To probe autoactivation with full-length BAK, we mutated hydrophobic residues at positions (0)−(6) of the BH3 to alanine or arginine, and D83, which forms the conserved salt bridge (s) with R127, to alanine (Fig. 2a). The BH3 residues participate in autoactivation from the ligand side [hydrophobic positions (0)–(5) and D83(s)] and also from the receptor groove side [hydrophobic positions (3)–(5)] (Fig. 2a). Thus, substitutions at positions (3)–(5) should affect receptor and ligand activities and are predicted to impact BAK activation more severely than mutations of positions (0)–(2), which affect only ligand activity. […] In contrast, almost all (2)–(5) and (s) missense mutants were considerably impaired in autoactivation (Fig. 2b and Supplementary Fig. 3a). […] Despite impairment in autoactivation, all missense mutants were directly activated by BID BH3 peptide, although they induced lower level of permeabilization compared to WT BAK (Fig. 2b and Supplementary Fig. 3a).
We performed liposome permeabilization assays as previously described[43]–[46]. […] (nickel salt) [DGS NTA(Ni), 2.5 μM final concentration in each assay] (Avanti Polar Lipids). We prepared 12.5 mM fluorophore; 8-aminonaphthalene-1, 3, 6-trisulfonic acid, disodium salt (ANTS) and 45 mM quencher; p-xylene-bis-pyridiniumbromide (DPX) in LUV buffer (10 mM HEPES pH 6.8, 200 mM KCl and 5 mM MgCl2). We mixed the lipid film in ANTS/DPX solution by vortexing and sonication (~15 min) followed by extrusion through polycarbonate membrane of 2 μm pore size (Avanti Polar lipids) to generate homogenous large unilamellar vesicles (LUVs). We separated LUVs from free ANTS/DPX by S500 size exclusion chromatography and stored them at 4 °C in the dark. We prepared peptide and protein dilutions in 96-well black flat bottom plates (Costar) kept on ice. ANTS release from permeabilized liposomes causes an increase in fluorescence, which we monitored at 37 °C for 90 min using a CLARIOSTAR microplate reader (BMG Labtech) set at excitation and emission wavelengths of 360 and 530 nm, respectively. We normalized the data relative to maximum and minimum fluorescence induced by 3% CHAPS and buffer controls, respectively. We quantified liposome permabilization by integrating area under curve (AUC) of normalized traces based on the Simpson’s equation, and analyzed that data in Excel and GraphPad Prism. AUC measurements reflect the kinetic and extent of liposome permeabilization and provide quantitative means for comparison between different experimental conditions (e.g., BAK mutants with gross or partial variation in activity). Variability in permeabilization of different liposomes is common and our analyses compare among conditions investigated with the same liposomes. Although the absolute permeabilization values may differ, the trends for the same conditions are always very similar between different liposomes.

B1: V74A (1): BAK missense mutant, WT-like; in cells as mCherry fusion (protein)
chain: MASGQGPGPPRQECGEPALPSASEEQVAQDTEEVFRSYVFYRHQQEQEAEGVAAPADPEMVTLPLQPSSTMGQAGRQLAIIGDDINRRYDSEFQTMLQHLQPTAENAYEYFTKIATSLFESGINWGRVVALLGFGYRLALHVYQHGLTGFLGQVTRFVVDFMLHHCIARWIAQRGGWVAALNLGNG
modifications: left off: His6, C-terminal, kept
notes: BAK missense mutant, WT-like; in cells as mCherry fusion
With B1 as the molecule, how does the “SYTOX Green +ve counts/confluence AUC of kinetic traces” value (from here on “SYTOX Green +ve counts/confluence AUC”) ([1]; Dox 6.25 ng/mL) read?
The value was 290.31.

What about the “SYTOX Green +ve counts/confluence AUC” value ([1]; Dox 6.25 ng/mL + qVD) of the same molecule?
Its value is 201.143.

What about the “SYTOX Green +ve counts/confluence AUC” value ([1]; Dox 12.5 ng/mL) of the same molecule?
The value was 574.561.

And the “SYTOX Green +ve counts/confluence AUC” value ([1]; Dox 12.5 ng/mL + qVD)?
Its value is 218.508.

And the “SYTOX Green +ve counts/confluence AUC” value ([1]; Dox 25 ng/mL)?
The value was 828.325.

What about the “SYTOX Green +ve counts/confluence AUC” value ([1]; Dox 25 ng/mL + qVD) of the same molecule?
Its value is 220.818.

And the “SYTOX Green +ve counts/confluence AUC” value ([1]; Dox 50 ng/mL)?
Its value is 1653.15.

And the “SYTOX Green +ve counts/confluence AUC” value ([1]; Dox 50 ng/mL + qVD)?
Its value is 333.116.

And the “SYTOX Green +ve counts/confluence AUC” value ([1]; Dox 100 ng/mL)?
The value was 2313.65.

What about the “SYTOX Green +ve counts/confluence AUC” value ([1]; Dox 100 ng/mL + qVD) of the same molecule?
The value was 342.619.

And the “SYTOX Green +ve counts/confluence AUC” value ([1]; Dox 500 ng/mL)?
The value was 2761.33.

What about the “SYTOX Green +ve counts/confluence AUC” value ([1]; Dox 500 ng/mL + qVD) of the same molecule?
The value was 584.364.

What about the “SYTOX Green +ve counts/confluence AUC” value ([1]; Dox 1000 ng/mL) of the same molecule?
The value was 2775.53.

And the “SYTOX Green +ve counts/confluence AUC” value ([1]; Dox 1000 ng/mL + qVD)?
The value was 699.139.

And the Dox-induced cell death ([1]; IncuCyte SYTOX Green up to 48 h)?
Its Dox-induced cell death is “induces cell death faster than I81A(3) or D83A(s) irrespective of Dox dose”.

What about the “AUC (48 hr) of SYTOX Green counts/confluence” value ([1]; Dox 100 ng/mL) of the same molecule?
Its value is 79832.2.

What about the “AUC (48 hr) of SYTOX Green counts/confluence” value ([1]; Dox 1000 ng/mL) of the same molecule?
The value was 98530.5.

What about the “cell death with Dox + TRAIL + CHX compared to Dox alone” value [2] of the same molecule?
The value was “boosted the levels of cell death”.

What about the “autoactivation in liposome permeabilization assays” value [3] of the same molecule?
The value was “behave similar to WT BAK”.
